The text below walks through data of publication PMC11050134.

pKd: −log10 of the molar value.

Some targets named below: asialo-fetuin (UniProt P12763); asialo-transferrin (UniProt P02787); fetuin (UniProt P12763); transferrin (UniProt P02787).
The target in experiment [1] is asialo-bovine submaxillary mucin (bovine).
For experiment [2], the target named is asialo-porcine thyroglobulin (porcine) (UniProt F1RRV3).
For experiment [3], the target named is bovine submaxillary mucin (bovine).
Experiment [4] concerns the target porcine thyroglobulin (porcine) (UniProt F1RRV3).
Experiment [5] deals with influenza viral envelope hemagglutinin, vaccine preparation (Denka-Seken) with a mixture of the hema (influenza A virus (H1N1, H3N2) and influenza B virus). In words: SPR; BIAcore X100; […]; HBS-N (10 mM HEPES, 150 mM NaCl, pH 7.4), 30 μL/min, […], dissociation 600 s; Langmuir 1:1 fit. In general terms: In SPR one partner is held on a chip, and binding of the other changes the refractive index at the surface.

Experiment [6] concerns the target Halimeda borneensis lectin HBL40 (Halimeda borneensis). In words: SDS-PAGE, non-reducing against reducing; purified HBL40 on 12% gel with and without 2% 2-mercaptoethanol, Coomassie stain; about 40 kDa non-reducing, 20 kDa reducing.

In the case of “Halimeda borneensis lectin HBL40 (natural protein)”, the hemagglutination inhibition (trypsin-treated rabbit erythrocytes): lowest concentration of glycoprotein that completely inhibited the hemagglutination activity of a lectin solution of titer 4 was 31.3 µg/mL in experiment [1]; 125 µg/mL in the experiment with asialo-fetuin; 15.6 µg/mL in experiment [2]; 62.5 µg/mL with asialo-transferrin; 62.5 µg/mL in [3]; 1000 µg/mL with fetuin. For the same substance, the hemagglutination inhibition (trypsin-treated rabbit erythrocytes): lowest concentration of glycoprotein that completely inhibited the hemagglutination activity of a lectin solution of titer 4 in [4] was 31.3 µg/mL; with transferrin, 500 µg/mL. Further, the pKd in experiment [5] is 5.92. The koff in experiment [5] is 0.0433 s⁻¹. In addition, the kon in experiment [5] amounted to 35600 M⁻¹ s⁻¹. Moreover, in experiment [6], the stoichiometry N is 2.

One may read the pKd as the Kd on a negative log10 scale, so that one unit is a factor of ten. The term koff denotes the rate constant with which the complex falls apart. Usually kon stands for a measure of how fast the partners come together. A word on the stoichiometry N: it is a count of units in the complex or per binding partner.
